B1: FC11 (antibody, V domains shown)
VH: EVQLLESGGGVVQPGRSLRLSCAASGFTFSYYGMHWVRQAPGTGLEWVAVISYDGSNEYYADSVKGRFTISRDNSKNTLYLQMNSLRAEDTAVYYCAKAMFLGDSSGLTGLDMDVWGQGTTVTVSS
VL: DIELTQSPGTLSLSPGERATLSCRASQSVSSYLAWYQQKPGQAPRLLIYDASNRATGIPARFSGSGSGTDFTLTISSLEPEDFALYYCQQRGNWPPTFGGGTKLEIK
B2: FC08 (antibody, V domains shown)
VH: VQLLQQSGAEVKKPGSSVKVSCKASGGTFSSYAISWVRQAPGQGLEWMGGIIPILGIANYAQKFQGRVTITADKSTSTAYMELSSLRSEDTAVYYCVRERGYSGYGAAYYFDYWGQGTLVTVSS
VL: QSVLTQPPSVSGAPGQRVTISCTGSSSNIGAGYDVHWYQQLPGTAPKLLIYGNSNRPSGVPDRFSGSKSGTSASLAITGLQAEDEADYYCQSYDSSLSGSVFGGGTKLTVL
B3: FC05 (antibody, V domains shown)
VH: VQLLEQSGAEVKKPGASVRVSCKVSGYTLPEVAMHWVRQAPGKGLEWMGGFDPEDGETIYAQKFQGRVTMTEDTSTDTAYMELSSLRSEDTAVYYCATTTPFSSSFWFDPWGQGTLVTVSS
VL: QSVLTQAPSVSGAPGQKVTISCSGSSSNIGNNYVSWYQQLPGTAPKLLIYDNNKRPSGIPDRFSGSKSGTSATLGITGLQTGDEADYYCGTWDSSLSAVVFGGGTKLTVL

What was measured:
[1] = molecular target: SARS-CoV-2 S蛋白 (spike) on live virus, 分离株 BetaCoV/JS03/human/2020 (SARS-CoV-2, UniProt P0DTC2 14-1273); experiment: cell-based or functional assay
[2] = molecular target: 重组SARS-CoV-2刺突蛋白胞外区 (extra cellular domain of spike protein) (SARS-CoV-2, UniProt P0DTC2 14-1213); experiment: SPR, Biacore 8K, S-ECD coupled to a CM5 chip, antibody 125nM~7.8nM in solution
[3] = molecular target: SARS-CoV-2 S蛋白 (spike) on live virus, 分离株 BetaCoV/JS03/human/2020 (SARS-CoV-2, UniProt P0DTC2 14-1273); experiment: cell-based or functional assay; remark: listed apart in the source

| Binder | IC50(ng/ml), 体外中和实验 (live virus, Vero E6, CPE) [1] | Kd [2] | IC50(ng/ml), 体外中和实验 (live virus, Vero E6, CPE) [3] |
| --- | --- | --- | --- |
| B1 | 818 ng/mL | 500 pM | – |
| B2 | 325 ng/mL | 800 pM | – |
| B3 | – | – | 142 ng/mL |

— patent publication CN111620946A (JIANGSU DISEASE CONTROL AND PREVENTION CENTER JIANGSU …, dated 2020)
